Results on five sequences are retold here after the supplement of paper PMC5998384.

The test system of data set [1] is HeLa Kyoto. Put plainly: solubility in G1/S (NP-40 vs SDS abundance) (log2 ratio); higher = more soluble. The following applies: cell cycle stage: G1/S.
In data set [2] the test system is HeLa Kyoto. As to the kind of experiment: thermal stability score vs G1/S (z-score of summed log2 fold changes over temperatures); higher = more thermally stable than in G1/S.
Data set [3] deals with HeLa Kyoto. Put plainly: melting temperature (median over replicates), in situ; higher = more thermally stable.
For data set [4], the system named is HeLa Kyoto. Put plainly: solubility change mitosis vs G1/S (difference of NP-40 vs SDS log2 ratios) (log2 ratio difference); higher = more soluble in mitosis.
[5] abbreviates: cell cycle stage: early G1 (4.5 h after nocodazole release).
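For melting temperature (median over replicates), in situ in this document: HeLa Kyoto cells synchronized by double thymidine or nocodazole block, proteins quantified by TMT10plex mass spectrometry, three independent biological replicates.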
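For solubility change mitosis vs G1/S (difference of NP-40 vs SDS log2 ratios) in this document: synchronized HeLa Kyoto cells (double thymidine block for G1/S, nocodazole release for mitosis), protein amounts in NP-40 versus SDS lysates quantified by mass spectrometry, three biological replicates.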
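For solubility in G1/S (NP-40 vs SDS abundance) in this document: HeLa Kyoto cells arrested at G1/S by double thymidine block, proteins quantified by TMT10plex mass spectrometry in mild NP-40 versus SDS extracts, three biological replicates.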
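For thermal stability score vs G1/S (z-score of summed log2 fold changes over temperatures) in this document: synchronized HeLa Kyoto cells, proteins quantified by TMT10plex mass spectrometry, three biological replicates, mitosis taken 0.5 h after nocodazole release, G1/S directly after double thymidine block.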

Regarding “MNKPITPSTYVRCLNVGLIRKLSDFIDPQEGWKKLAVAIKKPSGDDRYNQFHIRRFEALLQTGKSPTSELLFDWGTTNCTVGDLVDLLIQNEFFAPASLLLPDAVPKTANTLPSKEAITVQQKQMPFCDKDRTLMTPVQNLEQSYMPPDSSSPENKSLEVSDTRFHSFSFYELKNVTNNFDERPISVGGNKMGEGGFGVVYKGYVNNTTVAVKKLAAMVDITTEELKQQFDQEIKVMAKCQHENLVELLGFSSDGDDLCLVYVYMPNGSLLDRLSCLDGTPPLSWHMRCKIAQGAANGINFLHENHHIHRDIKSANILLDEAFTAKISDFGLARASEKFAQTVMTSRIVGTTAYMAPEALRGEITPKSDIYSFGVVLLEIITGLPAVDEHREPQLLLDIKEEIEDEEKTIEDYIDKKMNDADSTSVEAMYSVASQCLHEKKNKRPDIKKVQQLLQEMTAS [IRAK4]”, the “solubility in G1/S (log2)” value with HeLa Kyoto [1] turned out to be 0.372. Moreover, the results for the thermal stability score in the data set on HeLa Kyoto [2] (setting [5]) and in the data set with HeLa Kyoto [2] (cell cycle stage: mitosis) were 0.383 and 1.05, respectively. The melting temperature in the data set on HeLa Kyoto [3] (cell cycle stage: G1/S) amounted to 50.6 °C; in the data set on HeLa Kyoto [3] (cell cycle stage: mitosis) it was 49.9 °C. Moreover, the “solubility change mitosis (log2)” value in the data set with HeLa Kyoto [4] was -0.193.

As for “MNLEKLSKPELLTLFSILEGELEARDLVIEALKAQHRDTFIEERYGKYNISDPLMALQRDFETLKEKNDGEKQPVCTNPLSILKVVMKQCKNMQERMLSQLAAAESRHRKVILDLEEERQRHAQDTAEGDDVTYMLEKERERLTQQLEFEKSQVKKFEKEQKKLSSQLEEERSRHKQLSSMLVLECKKATNKAAEEGQKAGELSLKLEKEKSRVSKLEEELAAERKRGLQTEAQVEKQLSEFDIEREQLRAKLNREENRTKTLKEEMESLKKIVKDLEASHQHSSPNEQLKKPVTVSKGTATEPLMLMSVFCQTESFPAERTHGSNIAKMTNTGLPGPATPAYSYAKTNGHCDPEIQTTRELTAGNNVENQVPPREKSVALAQEKPVENGGCPVGIETPVPMPSPLSSSGSSLSPSSTASSSLTSSPCSSPVLTKRLLGSSASSPGYQSSYQVGINQRFHAARHKFQSQADQDQQASGLQSPPSRDLSPTLIDNSAAKQLARNTVTQVLSRFTSQQGPIKPVSPNSSPFGTDYRNLANTANPRGDTSHSPTPGKVSSPLSPLSPGIKSPTIPRAERGNPPPIPPKKPGLTPSPSATTPLTKTHSQAASLTTAEDLASSCSSNTVVANGKDVELLLPTSS [CTTNBP2NL]”, the “solubility in G1/S (log2)” value in the data set with HeLa Kyoto [1] turned out to be 0.435. In addition, the thermal stability score was -2.02 in the data set on HeLa Kyoto [2] (setting [5]) and -1.85 with HeLa Kyoto [2] (cell cycle stage: mitosis). Besides, the melting temperature in the data set on HeLa Kyoto [3] (cell cycle stage: G1/S) was found to be 49.9 °C; with HeLa Kyoto [3] (cell cycle stage: mitosis), 50.3 °C. Moreover, the “solubility change mitosis (log2)” value with HeLa Kyoto [4] was -0.363.

Regarding “MNPRQGYSLSGYYTHPFQGYEHRQLRYQQPGPGSSPSSFLLKQIEFLKGQLPEAPVIGKQTPSLPPSLPGLRPRFPVLLASSTRGRQVDIRGVPRGVHLRSQGLQRGFQHPSPRGRSLPQRGVDCLSSHFQELSIYQDQEQRILKFLEELGEGKATTAHDLSGKLGTPKKEINRVLYSLAKKGKLQKEAGTPPLWKIAVSTQAWNQHSGVVRPDGHSQGAPNSDPSLEPEDRNSTSVSEDLLEPFIAVSAQAWNQHSGVVRPDSHSQGSPNSDPGLEPEDSNSTSALEDPLEFLDMAEIKEKICDYLFNVSDSSALNLAKNIGLTKARDINAVLIDMERQGDVYRQGTTPPIWHLTDKKRERMQIKRNTNSVPETAPAAIPETKRNAEFLTCNIPTSNASNNMVTTEKVENGQEPVIKLENRQEARPEPARLKPPVHYNGPSKAGYVDFENGQWATDDIPDDLNSIRAAPGEFRAIMEMPSFYSHGLPRCSPYKKLTECQLKNPISGLLEYAQFASQTCEFNMIEQSGPPHEPRFKFQVVINGREFPPAEAGSKKVAKQDAAMKAMTILLEEAKAKDSGKSEESSHYSTEKESEKTAESQTPTPSATSFFSGKSPVTTLLECMHKLGNSCEFRLLSKEGPAHEPKFQYCVAVGAQTFPSVSAPSKKVAKQMAAEEAMKALHGEATNSMASDNQPEGMISESLDNLESMMPNKVRKIGELVRYLNTNPVGGLLEYARSHGFAAEFKLVDQSGPPHEPKFVYQAKVGGRWFPAVCAHSKKQGKQEAADAALRVLIGENEKAERMGFTEVTPVTGASLRRTMLLLSRSPEAQPKTLPLTGSTFHDQIAMLSHRCFNTLTNSFQPSLLGRKILAAIIMKKDSEDMGVVVSLGTGNRCVKGDSLSLKGETVNDCHAEIISRRGFIRFLYSELMKYNSQTAKDSIFEPAKGGEKLQIKKTVSFHLYISTAPCGDGALFDKSCSDRAMESTESRHYPVFENPKQGKLRTKVENGEGTIPVESSDIVPTWDGIRLGERLRTMSCSDKILRWNVLGLQGALLTHFLQPIYLKSVTLGYLFSQGHLTRAICCRVTRDGSAFEDGLRHPFIVNHPKVGRVSIYDSKRQSGKTKETSVNWCLADGYDLEILDGTRGTVDGPRNELSRVSKKNIFLLFKKLCSFRYRRDLLRLSYGEAKKAARDYETAKNYFKKGLKDMGYGNWISKPQEEKNFYLCPV [ADAR]”, the “solubility in G1/S (log2)” value with HeLa Kyoto [1] was -0.466. Besides, the thermal stability score is 2.76 in the data set on HeLa Kyoto [2] (setting [5]) and 5.55 with HeLa Kyoto [2] (cell cycle stage: mitosis). The melting temperature was determined as 47.9 °C in the data set on HeLa Kyoto [3] (cell cycle stage: G1/S) and 49 °C in the data set on HeLa Kyoto [3] (cell cycle stage: mitosis). For the same sequence, the “solubility change mitosis (log2)” value with HeLa Kyoto [4] was determined as 0.346.

Consider “MNQEKLAKLQAQVRIGGKGTARRKKKVVHRTATADDKKLQSSLKKLAVNNIAGIEEVNMIKDDGTVIHFNNPKVQASLSANTFAITGHAEAKPITEMLPGILSQLGADSLTSLRKLAEQFPRQVLDSKAPKPEDIDEEDDDVPDLVENFDEASKNEAN [BTF3L4]”, for which the “solubility in G1/S (log2)” value with HeLa Kyoto [1] came to 0.114. Further, the thermal stability score with HeLa Kyoto [2] (setting [5]) is -0.215; in the data set on HeLa Kyoto [2] (cell cycle stage: mitosis), -1.23. In addition, the results for the melting temperature in the data set with HeLa Kyoto [3] (cell cycle stage: G1/S) and in the data set on HeLa Kyoto [3] (cell cycle stage: mitosis) were 56.3 °C and 54.6 °C, respectively. Also, in the data set on HeLa Kyoto [4], the “solubility change mitosis (log2)” value turned out to be 0.243.

On to “MNREDRNVLRMKERERRNQEIQQGEDAFPPSSPLFAEPYKVTSKEDKLSSRIQSMLGNYDEMKDFIGDRSIPKLVAIPKPTVPPSADEKSNPNFFEQRHGGSHQSSKWTPVGPAPSTSQSQKRSSGLQSGHSSQRTSAGSSSGTNSSGQRHDRESYNNSGSSSRKKGQHGSEHSKSRSSSPGKPQAVSSLNSSHSRSHGNDHHSKEHQRSKSPRDPDANWDSPSRVPFSSGQHSTQSFPPSLMSKSNSMLQKPTAYVRPMDGQESMEPKLSSEHYSSQSHGNSMTELKPSSKAHLTKLKIPSQPLDASASGDVSCVDEILKEMTHSWPPPLTAIHTPCKTEPSKFPFPTKESQQSNFGTGEQKRYNPSKTSNGHQSKSMLKDDLKLSSSEDSDGEQDCDKTMPRSTPGSNSEPSHHNSEGADNSRDDSSSHSGSESSSGSDSESESSSSDSEANEPSQSASPEPEPPPTNKWQLDNWLNKVNPHKVSPASSVDSNIPSSQGYKKEGREQGTGNSYTDTSGPKETSSATPGRDSKTIQKGSESGRGRQKSPAQSDSTTQRRTVGKKQPKKAEKAAAEEPRGGLKIESETPVDLASSMPSSRHKAATKGSRKPNIKKESKSSPRPTAEKKKYKSTSKSSQKSREIIETDTSSSDSDESESLPPSSQTPKYPESNRTPVKPSSVEEEDSFFRQRMFSPMEEKELLSPLSEPDDRYPLIVKIDLNLLTRIPGKPYKETEPPKGEKKNVPEKHTREAQKQASEKVSNKGKRKHKNEDDNRASESKKPKTEDKNSAGHKPSSNRESSKQSAAKEKDLLPSPAGPVPSKDPKTEHGSRKRTISQSSSLKSSSNSNKETSGSSKNSSSTSKQKKTEGKTSSSSKEVKEKAPSSSSNCPPSAPTLDSSKPRRTKLVFDDRNYSADHYLQEAKKLKHNADALSDRFEKAVYYLDAVVSFIECGNALEKNAQESKSPFPMYSETVDLIKYTMKLKNYLAPDATAADKRLTVLCLRCESLLYLRLFKLKKENALKYSKTLTEHLKNSYNNSQAPSPGLGSKAVGMPSPVSPKLSPGNSGNYSSGASSASASGSSVTIPQKIHQMAASYVQVTSNFLYATEIWDQAEQLSKEQKEFFAELDKVMGPLIFNASIMTDLVRYTRQGLHWLRQDAKLIS [AFF4]”, for which, in the data set with HeLa Kyoto [1], the “solubility in G1/S (log2)” value came out at 0.00478. Moreover, the thermal stability score in the data set with HeLa Kyoto [2] (setting [5]) worked out at 0.474; in the data set with HeLa Kyoto [2] (cell cycle stage: mitosis) it was 1.75. The melting temperature came out at 48.6 °C in the data set on HeLa Kyoto [3] (cell cycle stage: G1/S) and 51 °C with HeLa Kyoto [3] (cell cycle stage: mitosis). The “solubility change mitosis (log2)” value with HeLa Kyoto [4] came to 0.309.
